Data: patent publication US20220096649A1 (TALLAC THERAPEUTICS, published 2022)

T1: SIRP-α mouse BL6 (mouse (BL6), UniProt P97797 32-150, limits assumed)
T1 construct: Soluble analyte in SPR
T1 sequence (looked up): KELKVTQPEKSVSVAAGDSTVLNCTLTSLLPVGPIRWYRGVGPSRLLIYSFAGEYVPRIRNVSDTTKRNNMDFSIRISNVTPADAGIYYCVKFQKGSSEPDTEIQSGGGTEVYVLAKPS

T2: SIRP-α cynomolgus (cynomolgus, UniProt A0A2K5VYQ9 31-148)
T2 construct: Soluble analyte in SPR; also called cynomologous monkey SIRP-α
T2 sequence: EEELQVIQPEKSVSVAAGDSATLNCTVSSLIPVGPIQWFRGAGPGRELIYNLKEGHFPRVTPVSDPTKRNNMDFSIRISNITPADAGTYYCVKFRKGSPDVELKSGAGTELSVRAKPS


What was measured:
Assay in all cases: SPR, antibody on GLC chip, SIRP as analyte
SIRP-α mouse BL6 = biological target: T1, SIRP-α mouse BL6
Experimental: (§1) The running buffer was PBS pH 7.4 with 0.01% TWEEN-20 (PBST+). All analytes were used at their nominal concentrations as determined by A280 absorbance and using their molar calculated extinction coefficient. Analytes were injected in a “one-shot” kinetic mode as described (see, e.g., Bravman et al., Anal. Biochem. 2006, 358, 281-288).
(§2) For the method using a GLC chip, the analytes were injected and flowed over anti-SIRPα antibodies immobilized (˜1000 RUs) on GLC chips using Proteon Amine Coupling Kit. For the immobilization step, the GLC chip was activated with EDAC/Sulpho-NHS 1:1 (Biorad) diluted 1/100 for 300 s at 25 μL/min. Anti-SIRPα antibodies were diluted to 80 nM concentration in 10 mM sodium acetate buffer pH 4.5 and immobilized to the chip at 30 μL/min for 50 s. Chip was inactivated with ethanolamine for 300 s at 25 μL/min. The analytes (e.g., SIRP-α from different species, SIRP-β, SIRP-γ) were injected in a “one-shot” kinetic mode at nominal concentrations of 100, 33, 11, 3.7, 1.2, and 0 nM. Association times were monitored for 90 s at 100 uL/min, and dissociation times were monitored for 1200 s. The surfaces were regenerated with a 2:1 v/v blend of Pierce IgG elution buffer/4M NaCl.
(§3) Biosensor data were double-referenced by subtracting the interspot data (containing no immobilized protein) from the reaction spot data (immobilized protein) and then subtracting the response of a buffer “blank” analyte injection from that of an analyte injection. Double-referenced data were fit globally to a simple Langmuir model and the KD value was calculated from the ratio of the apparent kinetic rate constants (KD=kd/kₐ).

Human SIRPβ = biological target: T3, Human SIRPβ (human, UniProt O00241 30-148)
T3 construct: Soluble analyte in SPR
T3 sequence (O00241 30-148): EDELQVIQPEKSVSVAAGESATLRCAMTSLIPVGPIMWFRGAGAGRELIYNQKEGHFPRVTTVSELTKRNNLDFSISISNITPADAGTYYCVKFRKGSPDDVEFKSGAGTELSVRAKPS
Experimental: as §1, §2, §3

Human SIRPγ = biological target: T4, Human SIRPγ (human, UniProt Q9P1W8 29-147, limits assumed)
T4 construct: Soluble analyte in SPR
T4 sequence (Q9P1W8 29-147 limits assumed): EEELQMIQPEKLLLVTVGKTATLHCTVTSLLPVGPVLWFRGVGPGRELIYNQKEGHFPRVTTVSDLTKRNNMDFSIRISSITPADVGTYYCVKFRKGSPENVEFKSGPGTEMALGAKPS
Experimental: as §1, §2, §3

SIRP-α cynomolgus = biological target: T2, SIRP-α cynomolgus
Experimental: as §1, §2, §3

SIRP-α human v2 = biological target: T5, SIRP-α human v2 (human, UniProt P78324 31-149, limits assumed)
T5 construct: Soluble analyte in SPR
T5 sequence (P78324 other isoform, or with tags, fused parts or gaps limits assumed): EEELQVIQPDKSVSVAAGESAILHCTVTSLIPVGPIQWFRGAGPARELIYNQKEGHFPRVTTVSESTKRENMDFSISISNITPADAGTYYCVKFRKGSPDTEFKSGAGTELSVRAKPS
Experimental: as §1, §2, §3

| Binder | Kd (SIRP-α mouse BL6) [nM] | Kd (Human SIRPβ) [nM] | Kd (Human SIRPγ) [nM] | Kd (SIRP-α cynomolgus) [nM] | Kd (SIRP-α human v2) [nM] | binding result (SIRP-α mouse BL6) |
| --- | --- | --- | --- | --- | --- | --- |
| Hum1/AB21_HC_Mutall (antibody, V domains shown, Whole antibody) VH: EVQLVESGGGVVQPGGSLRLSCAASGFTFSSNAMSWVRQAPGKGLEWVAGISAGGSDTYYPASVKGRFTISRDNSKNTLYLQMNSLRAEDTAVYYCARETWNHLFDYWGQGTLVTVSS VL: SYELTQPPSVSVSPGQTARITCSGGSYSSYYYAWYQQKPGQAPVTLIYSDDKRPSNIPERFSGSSSGTTVTLTISGVQAEDEADYYCGGYDQSSYTNPFGGGTKLTVL | 9.5 | 0.0067 | 0.001 | 0.029 | 0.0046 |  |
| Anti-SIRP-α antibody 119, light chain Mut, heavy chain Mut (antibody, V domains shown, Whole antibody) VH: EVQLLESGGGVVQPGGSLRLSCAASGFSFSNFAVTWVRQAPGKGLEWVSTIGSGDTYYADSVKGRFTISRDNSKNTLYLQMNSLRAEDTAVYYCAKDSTVSWSGDFFDYWGQGTLVTVSS VL: EIVLTQSPATLSVSPGERATLSCRASQNVKNDLAWYQQKPGQAPRLLIYAARIRETGIPARFSGSGSGTEFTLTISSLQSEDFAVYYCQQYYDWPPFTFGGGTKVEIK |  | 0.46 | 0.34 | 0.2 | 0.088 | no binding (tested: 100 nM (highest analyte concentration)) |
| Anti-SIRP-α antibody 135, light chain wt, heavy chain Mut_V34M (antibody, V domains shown, Whole antibody) VH: EVQLVESGGGVVQPGGSLRLSCAASGFSFSIYAMSWVRQAPGKGLEWVSTIGADDTYYADSVKGRFTISRDNSKNTLYLQMNSLRAEDTAVYYCAKDSTVGWSGDFFDYWGQGTLVTVSS VL: EIVLTQSPATLSVSPGERVTFSCRASQNVRSDIAWYQQKPGQAPRLLIYAASSRDTGIPDRFSGSGSGTDFTLTISSLQSEDFGVYYCQQYYDWPPFTFGGGTKVEIK |  | 0.16 | 0.53 | 0.08 | 0.016 | no binding (tested: 100 nM (highest analyte concentration)) |
| Anti-SIRP-α antibody 119, light chain Mut, heavy chain Mut_V34M (antibody, V domains shown, Whole antibody) VH: EVQLLESGGGVVQPGGSLRLSCAASGFSFSNFAMTWVRQAPGKGLEWVSTIGSGDTYYADSVKGRFTISRDNSKNTLYLQMNSLRAEDTAVYYCAKDSTVSWSGDFFDYWGQGTLVTVSS VL: EIVLTQSPATLSVSPGERATLSCRASQNVKNDLAWYQQKPGQAPRLLIYAARIRETGIPARFSGSGSGTEFTLTISSLQSEDFAVYYCQQYYDWPPFTFGGGTKVEIK |  | 0.34 | 0.26 | 0.12 | 0.069 | no binding (tested: 100 nM (highest analyte concentration)) |
| Anti-SIRP-α antibody 135, light chain Mut, heavy chain Mut (antibody, V domains shown, Whole antibody) VH: EVQLVESGGGVVQPGGSLRLSCAASGFSFSIYAVSWVRQAPGKGLEWVSTIGADDTYYADSVKGRFTISRDNSKNTLYLQMNSLRAEDTAVYYCAKDSTVGWSGDFFDYWGQGTLVTVSS VL: EIVLTQSPATLSVSPGERVTLSCRASQNVRSDIAWYQQKPGQAPRLLIYAASSRDTGIPARFSGSGSGTDFTLTISSLQSEDFGVYYCQQYYDWPPFTFGGGTKVEIK |  | 0.19 | 0.73 | 0.13 | 0.018 | no binding (tested: 100 nM (highest analyte concentration)) |
| Anti-SIRP-α antibody 119, light chain wt, heavy chain wt (antibody, V domains shown, Whole antibody (FreeStyle 293-FS, protein A purified)) VH: EVQLLESGGGVVQPGGSLRLSCAASGFSFSNFAMTWVRQAPGEGLEWVSTIGSGDTYYADSVKGRFTISRDNSKNTLYLQMNSLRAEDTAVYYCAKDSTVSWSGDFFDYWGLGTLVTVSS VL: EIVLTQSPATLSVSPGERATFSCRASQNVKNDLAWYQQRPGQAPRLLIYAARIRETGIPERFSGSGSGTEFTLTITSLQSEDFAVYYCQQYYDWPPFTFGGGTKVEIK |  | 0.34 | 0.27 | 0.11 | 0.068 | no binding (tested: 100 nM (highest analyte concentration)) |
